Laboratory results published in patent US9957320 (dated 2018).

What was measured:
human IL-13 [1] = molecular target: T1, human IL-13 (human, UniProt P35225); test: SPR, 25C, average of 3 determinations
human IL-13 [2] = molecular target: T1, human IL-13; test: SPR, average

T1 sequence (P35225 25-146): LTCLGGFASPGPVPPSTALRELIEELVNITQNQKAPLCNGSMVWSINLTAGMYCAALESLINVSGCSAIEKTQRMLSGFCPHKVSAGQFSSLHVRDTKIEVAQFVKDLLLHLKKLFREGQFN

Kd (human IL-13 [1]): 0.015 nM
Kd (human IL-13 [2]): 0.0134 nM
B1: Ab652 Fab (antibody, V domains shown)
VH: QVTLKESGPVLVKPTETLTLTCTVSGFSLSNARMGVSWIRQPPGKALEWLAHIFSNDEKSYSTSLKSRLTISKDTSKSQVVLTMTNMDPVDTATYYCARIYFDYWGQGTLVTVS
VL: DIQMTQSPSSLSASVGDRVTITCLASEDISNYLAWYQQKPGKAPKLLIYHTSRLQDGVPSRFSGSGSGTDFTLTISSLQPEDFATYYCQQGYRFPLTFGGGTKVEIK
